This note sets out measurements from patent US20170291954A1.

This test has as its target mesothelin on K562.meso cells (erythroblast cell line stably expressing mesothelin). Nature of the test: cell-based or functional assay.

As for “SS1 chimeric antigen receptor (mesothelin specific) on transduced T cells”, the CAR-T cell cytolysis at an Effector:target cell ratio of 10:1 (Cr51 release), K562meso worked out at 95%.
